Measurements as given in patent US20230168258A1 (UNIVERSIDAD DE MURCIA, published 2023).

Columns and labels:
Test in all cases: dot-blot
[1] = target: T1, pig oxytocin (pig, UniProt P01177 20-28)
T1 construct: only the oxytocin nonapeptide is meant; The form spotted in the dot-blot is not described; also called oxytocin of pig
T1 peptide (looked up): CYIQNCPLG

[2] = target: T2, horse oxytocin (horse, UniProt P01176 1-9)
T2 construct: The form spotted in the dot-blot is not described; also called oxytocin of horse
T2 peptide (looked up): CYIQNCPLG

[3] = target: T3, human oxytocin (human, UniProt P01178 20-28)
T3 construct: only the oxytocin nonapeptide is meant; The form spotted in the dot-blot is not described; also called oxytocin of human
T3 peptide (looked up): CYIQNCPLG

Measured: binding result

B1: monoclonal antibody P26C (antibody, V domains shown)
VH: QIQLVQSGPELKKPGETVKISCKASGYIFTNYGMNWVKQAPGKNLKWMGWINTNTGEPTYAEEFKGRFAFSLETSASIAYLKINNLKNEDTATYFCSRGGLLPLSYWGQGTLVTVSA
VL: DVVMTQTPLSLPVSLGDQASISCRSSQSLVHSNGNTYLHWFLQKPGQSPKLLIYKVSNRFSGVPDRFSGSGSGTDFTLKISRVEAEDLGVYFCSQSTHFPWTFGGGTKLEIK
notes: Mouse (BALB/c) hybridoma antibody; the isotype is stated as IgGk; It was tested as hybridoma supernatant in the ELISA; also called clone P26C; monoclonal antibody of the invention
binds: all assays above
